Experimental data reported in article PMC4649501 (2015).

T1: PDCD6 N-terminal domain peptide (Homo sapiens, Ca2+ (100 uM CaCl2))
T1 chain: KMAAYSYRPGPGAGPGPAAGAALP

B1: Sorcin (protein)
chain: MAYPGHPGAGGGYYPGGYGGAPGGPAFPGQTQDPLYGYFAAVAGQDGQIDADELQRCLTQSGIAGGYKPFNLETCRLMVSMLDRDMSGTMGFNEFKELWAVLNGWRQHFISFDTDRSGTVDPQELQKALTTMGFRLSPQAVNSIAKRYSTNGKITFDDYIACCVKLRALTDSFRRRDTAQQGVVNFPYDDFIQCVMSV
B2: Sorcin (protein)
chain: B1 chain
modifications: Ca2+ (100 uM CaCl2)
B3: SCBD (Sorcin calcium-binding domain) 33-198 (protein)
chain: DPLYGYFAAVAGQDGQIDADELQRCLTQSGIAGGYKPFNLETCRLMVSMLDRDMSGTMGFNEFKELWAVLNGWRQHFISFDTDRSGTVDPQELQKALTTMGFRLSPQAVNSIAKRYSTNGKITFDDYIACCVKLRALTDSFRRRDTAQQGVVNFPYDDFIQCVMSV
B4: SCBD (Sorcin calcium-binding domain) 33-198 (protein)
chain: B3 chain
modifications: Ca2+ (100 uM CaCl2)

Columns and labels:
[1] = target: PDCD6 (Homo sapiens, UniProt O75340); test: SPR
Sequence of PDCD6 (O75340 2-191): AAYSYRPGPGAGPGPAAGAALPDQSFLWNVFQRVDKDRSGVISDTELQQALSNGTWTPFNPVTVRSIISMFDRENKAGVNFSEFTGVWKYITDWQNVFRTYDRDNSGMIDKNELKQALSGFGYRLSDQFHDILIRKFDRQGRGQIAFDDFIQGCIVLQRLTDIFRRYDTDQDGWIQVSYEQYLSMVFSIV

[2] = target: T1, PDCD6 N-terminal domain peptide; test: SPR

Row | Binder | Kd [1] | Kd [2]
1 | B1 | 12 µM | 5 µM
2 | B2 | 3.5 µM | –
3 | B3 | 5 µM | 6 µM
4 | B4 | 3.5 µM | –
